# ± gives the standard deviation of the averaged measurements.
# Test system: Saccharomyces cerevisiae
# Test: protein stability index of tFT-peptide fusion (C-terminal peptide) (PSI (0-1 scale)); higher = more stable (slower turnover)
# Conditions: genetic background: wild type; temperature: 30 C
# 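Also: PSI is a weighted mean of sequencing reads over stability bins, variants kept only with over 10 reads, mCherry proximal and sfGFP distal, peptide attached via GGGS linker.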
row,Sequence,protein stability index
1,RGPPGVPGSDML,0.673 ± 0.023
2,RGPSGARRQPGL,0.6658 ± 0.0044
3,RGRAGPVVRELT,0.646 ± 0.097
4,RGRGEVRGVGGG,0.698 ± 0.067
5,RGRRGAGTGRGP,0.657 ± 0.019
6,RGRSVEGSRGGW,0.6781 ± 0.0048
7,RGRWGGGRVVRG,0.6944 ± 0.0062
8,RGSGCAFLFAWF,0.654 ± 0.092
9,RGSPDRPGGPLP,0.7322 ± 0.0028
10,RGTGPPGALREE,0.653 ± 0.046
11,RGVCVGGGCWLV,0.624 ± 0.034
12,RGWGGGRVAREC,0.657 ± 0.026
13,RGWWVLCGGGGG,0.57 ± 0.044
14,RGWWVRGGVLWC,0.677 ± 0.048
15,RGYSGSLSVVIY,0.657 ± 0.057
16,RGYVNVWTRLGN,0.717 ± 0.043
17,RHENKKDKIRME,0.701 ± 0.11
18,RHKLYPRIVLNR,0.699 ± 0.055
19,RHLPPAPAPRFI,0.717 ± 0.2
20,RHPPPPPPALTP,0.707 ± 0.054
21,RHSLPSPPAFCL,0.723 ± 0.0092
22,RHTARQSTTWRG,0.695 ± 0.071
23,RIAAVRVEGRDD,0.708 ± 0.026

row,Sequence,protein stability index
1,RIADSLTPAHPA,0.699 ± 0.023
2,RIEIVDVQFLWE,0.7 ± 0.048
3,RIEKNTKRSEIW,0.665 ± 0.021
4,RIHAVINLLMND,0.651 ± 0.039
5,RIKAKKNKTMKR,0.655 ± 0.021
6,RIKRTMNEKIRK,0.68 ± 0.0041
7,RIPSKSHAWVLV,0.483 ± 0.058
8,RITTNQMNIKFI,0.653 ± 0.02
9,RIWKKKRYNEKS,0.681 ± 0.12
10,RKASQEQYHQRH,0.648 ± 0.05
11,RKCHCPGGGRRI,0.7171 ± 0.00079
12,RKDEKRGTVIIA,0.62 ± 0.021
13,RKGHKSNRSKNE,0.705 ± 0.03
14,RKINKQKRTKEE,0.6449 ± 0.0023
15,RKKEKKQKKKKG,0.688 ± 0.043
16,RKKIRKNITQQP,0.692 ± 0.052
17,RKKKKKNKNEKE,0.713 ± 0.04
18,RKKKNRKERQKK,0.6725 ± 0.00086
19,RKKPRKLRETDN,0.649 ± 0.053
20,RKLNEKTRYKRR,0.7788 ± 0.003
21,RKMYRIKKEIKI,0.641 ± 0.098
22,RKNTSRESGLTR,0.632 ± 0.026
23,RKSDGMKSCLMG,0.684 ± 0.016

row,Sequence,protein stability index
1,RKYEKEKYKKMI,0.566 ± 0.013
2,RLAPWATGVRMW,0.6759 ± 0.0016
3,RLDAGASAAFKG,0.7184 ± 0.00093
4,RLGCGFGGGEEV,0.674 ± 0.032
5,RLGDALCFSFTV,0.644 ± 0.032
6,RLGGGGCVWVRG,0.683 ± 0.027
7,RLGIADHEYPCE,0.673 ± 0.011
8,RLGVWVWGFTPG,0.742 ± 0.082
9,RLGWTTSEELWC,0.657 ± 0.029
10,RLLSPPPPPPPV,0.701 ± 0.071
11,RLLSSPLHPPLP,0.701 ± 0.018
12,RLPLAPFSVTTH,0.699 ± 0.1
13,RLPLASPPHSSP,0.675 ± 0.056
14,RLPLPPSRLVKH,0.671 ± 0.026
15,RLPPGRPPPPPP,0.602 ± 0.08
16,RLPPPSPSLPPL,0.722 ± 0.063
17,RLPQSRLRTPPP,0.705 ± 0.069
18,RLRTVQNLQIVV,0.658 ± 0.028
19,RLSARRSVGGSA,0.7097 ± 0.0051
20,RLSCFLVWFPFW,0.5924 ± 0.0021
21,RLSFAWGGLLVV,0.523 ± 0.0057
22,RLSGDRCSHDAG,0.6768 ± 0.0037
23,RLSRCFDSHLGG,0.696 ± 0.038

row,Sequence,protein stability index
1,RLSVWTFCSMVW,0.555 ± 0.0085
2,RLTPFPPRPLPL,0.767 ± 0.2
3,RLVCLVTQSVPH,0.613 ± 0.021
4,RLVNSVAVSFLR,0.697 ± 0.1
5,RLVSPPPLPHRP,0.688 ± 0.0062
6,RMCLDYSFDSLL,0.673 ± 0.0082
7,RMIPYDLIRLTR,0.705 ± 0.012
8,RMKGTNKEGKKK,0.693 ± 0.054
9,RMLHYCTYSLLL,0.71 ± 0.079
10,RNAEVWDNLFEG,0.6969 ± 0.0061
11,RNAGYPALDELS,0.6861 ± 0.0047
12,RNIRINKKVKDI,0.594 ± 0.032
13,RNKINKKKLKKG,0.7403 ± 0.0062
14,RNKRKKNKDKIK,0.677 ± 0.051
15,RNKTNYIQKLTK,0.665 ± 0.027
16,RNNIKIKNTQQN,0.759 ± 0.045
17,RNRRKEMKKGRE,0.631 ± 0.034
18,RNSPLFLESPGS,0.723 ± 0.034
19,RNTIKTKKSNYV,0.654 ± 0.015
20,RPAPSRTYLNLI,0.674 ± 0.026
21,RPASSYPPHSPT,0.767 ± 0.037
22,RPFGRPTSMRHA,0.616 ± 0.059
23,RPFLPPPPHCPP,0.75 ± 0.036

row,Sequence,protein stability index
1,RPFVRDFGCAVW,0.711 ± 0.023
2,RPGNIRNNKKKK,0.688 ± 0.021
3,RPIQPATLAYSP,0.682 ± 0.037
4,RPLLPPTFATSF,0.751 ± 0.038
5,RPLPPLIPSSFS,0.698 ± 0.038
6,RPLSDDTDCPCI,0.748 ± 0.13
7,RPLSSSFRTVPS,0.721 ± 0.037
8,RPNTKKHKIGER,0.719 ± 0.03
9,RPPDPPLHHNLP,0.687 ± 0.014
10,RPPFPPPPLPPP,0.656 ± 0.031
11,RPPFRVYDYPLL,0.671 ± 0.039
12,RPPPPHPSPLPL,0.713 ± 0.052
13,RPPPPTAPPPSR,0.719 ± 0.043
14,RPPRPGFCLFLP,0.652 ± 0.0067
15,RPPSNRPPPPSS,0.698 ± 0.0032
16,RPRGRGRSRGDT,0.633 ± 0.037
17,RPRIPLNSSSLS,0.74 ± 0.037
18,RPRLSGGLGGVG,0.644 ± 0.051
19,RPRTSLFPCSLP,0.711 ± 0.081
20,RPTPHVVLPPLP,0.524 ± 0.067
21,RPTPSAPHRTRI,0.735 ± 0.041
22,RQCSGMIMKDVG,0.73 ± 0.036
23,RQDLLILIKQKG,0.573 ± 0.0072

row,Sequence,protein stability index
1,RQDRTFEIQGWE,0.697 ± 0.084
2,RQKIRRKSSTKN,0.704 ± 0.0074
3,RQRGNMEIRIRR,0.709 ± 0.027
4,RRAPLRNTSRHR,0.663 ± 0.021
5,RRCTLVERAWRW,0.628 ± 0.039
6,RREGGRQRGGSG,0.67 ± 0.063
7,RREGWYTNRERG,0.668 ± 0.013
8,RRFAKVALLSLR,0.644 ± 0.12
9,RRGAVVLVSPAL,0.677 ± 0.021
10,RRGPLDSVLVAI,0.713 ± 0.05
11,RRGRGGSGGSAP,0.734 ± 0.053
12,RRGWGDRLGRDA,0.711 ± 0.1
13,RRHKNNRLTVCR,0.625 ± 0.098
14,RRINRRGPRMME,0.62 ± 0.015
15,RRKEQGNHSTMR,0.663 ± 0.013
16,RRKHKSEEKHKR,0.649 ± 0.038
17,RRKNIQEKKIKK,0.725 ± 0.016
18,RRKVGVFTRRWV,0.691 ± 0.04
19,RRKYIFRMIYPR,0.658 ± 0.026
20,RRLRGGTQAEGE,0.682 ± 0.068
21,RRLRRALPPQLA,0.577 ± 0.037
22,RRPPPPSPPPPP,0.7095 ± 0.0062
23,RRPSSCSPLPLY,0.695 ± 0.03

row,Sequence,protein stability index
1,RRRAEGRRGVRA,0.6223 ± 0.0014
2,RRRAGSKEKQRK,0.703 ± 0.019
3,RRRGQDEGKQKR,0.7511 ± 0.0059
4,RRRGQLNTAEWK,0.717 ± 0.065
5,RRRGREVCRCTE,0.716 ± 0.046
6,RRRPPPLPPPHL,0.63 ± 0.015
7,RRSGILGSSFVF,0.75 ± 0.047
8,RRSRTEVVAVGG,0.676 ± 0.017
9,RRSVMLISNETR,0.698 ± 0.038
10,RRTDHQRAVREI,0.731 ± 0.042
11,RRVFSAGTRCGI,0.761 ± 0.11
12,RSAVPSARASAD,0.6431 ± 0.0026
13,RSCPGSWFRLSV,0.699 ± 0.12
14,RSFPSPPASLLL,0.66 ± 0.062
15,RSGPLFPLSCPP,0.767 ± 0.026
16,RSGPRMNVNRTL,0.646 ± 0.11
17,RSGQEKEKWEER,0.701 ± 0.022
18,RSHSTSSETNFV,0.6885 ± 0.0024
19,RSKHNEDRVVYI,0.709 ± 0.093
20,RSLPLAPPLAPL,0.742 ± 0.029
21,RSPPAPPHSCPP,0.69 ± 0.14
22,RSRGARMPTTPT,0.684 ± 0.034
